# In publication PMC3701943:
# Target: W590S murine ABCA1-GFP fusion (murine) (UniProt P41233)
# Assay: flow cytometry on cells
# UniProt P41233, sequence (P41233 whole entry W590S, the tested form may be a part): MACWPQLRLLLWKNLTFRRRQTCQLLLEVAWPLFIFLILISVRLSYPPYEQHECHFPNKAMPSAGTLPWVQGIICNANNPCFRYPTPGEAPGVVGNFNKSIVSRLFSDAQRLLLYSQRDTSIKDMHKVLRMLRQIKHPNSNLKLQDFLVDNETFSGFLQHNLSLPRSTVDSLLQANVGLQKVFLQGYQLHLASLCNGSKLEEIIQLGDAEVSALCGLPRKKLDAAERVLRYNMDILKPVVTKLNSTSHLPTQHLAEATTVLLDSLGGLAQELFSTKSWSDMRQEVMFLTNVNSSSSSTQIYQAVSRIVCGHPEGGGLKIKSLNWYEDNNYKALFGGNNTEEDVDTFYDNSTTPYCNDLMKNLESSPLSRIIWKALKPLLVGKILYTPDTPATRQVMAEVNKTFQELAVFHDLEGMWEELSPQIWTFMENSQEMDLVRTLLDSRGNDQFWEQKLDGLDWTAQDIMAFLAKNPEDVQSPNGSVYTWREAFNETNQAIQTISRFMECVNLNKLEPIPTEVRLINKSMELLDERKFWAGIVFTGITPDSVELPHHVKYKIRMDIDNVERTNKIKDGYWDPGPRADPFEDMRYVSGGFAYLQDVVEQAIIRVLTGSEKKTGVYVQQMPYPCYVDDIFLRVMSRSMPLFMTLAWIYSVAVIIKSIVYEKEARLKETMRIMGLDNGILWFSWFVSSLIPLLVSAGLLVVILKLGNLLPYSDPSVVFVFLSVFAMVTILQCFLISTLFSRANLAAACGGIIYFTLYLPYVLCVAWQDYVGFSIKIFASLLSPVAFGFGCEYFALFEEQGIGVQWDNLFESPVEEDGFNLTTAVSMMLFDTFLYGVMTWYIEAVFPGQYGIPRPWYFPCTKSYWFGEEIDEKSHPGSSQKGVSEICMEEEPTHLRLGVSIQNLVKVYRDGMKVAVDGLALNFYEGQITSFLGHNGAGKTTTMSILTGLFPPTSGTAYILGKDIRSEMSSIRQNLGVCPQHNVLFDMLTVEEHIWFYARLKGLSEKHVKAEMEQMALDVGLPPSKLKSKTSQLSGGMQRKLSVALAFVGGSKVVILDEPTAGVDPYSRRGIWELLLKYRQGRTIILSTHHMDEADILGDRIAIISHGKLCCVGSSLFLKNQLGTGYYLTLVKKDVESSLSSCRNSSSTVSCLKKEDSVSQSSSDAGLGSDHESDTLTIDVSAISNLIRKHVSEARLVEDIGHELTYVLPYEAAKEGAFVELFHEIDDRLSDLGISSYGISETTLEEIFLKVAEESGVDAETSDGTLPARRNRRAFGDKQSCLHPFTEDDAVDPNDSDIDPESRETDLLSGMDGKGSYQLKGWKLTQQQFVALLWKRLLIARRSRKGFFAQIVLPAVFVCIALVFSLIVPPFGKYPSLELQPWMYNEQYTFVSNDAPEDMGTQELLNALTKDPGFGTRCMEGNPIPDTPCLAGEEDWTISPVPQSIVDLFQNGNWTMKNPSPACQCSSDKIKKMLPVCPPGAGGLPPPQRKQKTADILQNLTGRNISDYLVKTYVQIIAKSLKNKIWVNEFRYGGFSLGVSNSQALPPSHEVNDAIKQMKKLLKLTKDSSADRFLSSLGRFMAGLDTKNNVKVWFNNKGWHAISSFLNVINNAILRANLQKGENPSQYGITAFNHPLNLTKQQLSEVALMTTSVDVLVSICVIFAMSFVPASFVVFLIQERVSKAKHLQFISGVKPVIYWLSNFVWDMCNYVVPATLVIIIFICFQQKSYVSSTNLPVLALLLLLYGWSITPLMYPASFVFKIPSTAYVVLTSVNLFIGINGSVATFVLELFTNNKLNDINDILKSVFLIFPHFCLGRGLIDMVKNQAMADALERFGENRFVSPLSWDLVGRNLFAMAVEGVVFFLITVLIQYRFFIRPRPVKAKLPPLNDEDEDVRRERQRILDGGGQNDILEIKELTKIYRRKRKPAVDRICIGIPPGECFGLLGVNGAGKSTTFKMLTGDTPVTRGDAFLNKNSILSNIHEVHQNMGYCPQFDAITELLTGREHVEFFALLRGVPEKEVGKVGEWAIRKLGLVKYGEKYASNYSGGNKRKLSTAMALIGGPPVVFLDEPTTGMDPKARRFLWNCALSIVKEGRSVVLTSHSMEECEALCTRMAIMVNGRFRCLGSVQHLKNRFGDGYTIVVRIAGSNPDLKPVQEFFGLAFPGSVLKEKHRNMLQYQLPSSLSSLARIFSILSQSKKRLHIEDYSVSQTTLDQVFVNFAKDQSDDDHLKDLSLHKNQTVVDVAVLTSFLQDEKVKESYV
substance,measurement,value
Alexa647-labeled apoAI (from UniProt P02647 25-267) (ligand),fold apoAI binding against control HEK cells,6 fold
